First the molecules themselves.
B1: N^α- ([Lys^17, Glu^21, Leu^27]Glucagonyl) … (peptide)
peptide: HSQGTFTSDYSKYLDSKRAQEFVQWLLNTK([AEEA-AEEA-γGlu-C18 diacid])-NH2
modifications: N-terminus assumed
SMILES: CC(C)C[C@H](NC(=O)[C@H](Cc1ccc(O)cc1)NC(=O)[C@H](CCCCN)NC(=O)[C@H](CO)NC(=O)[C@H](Cc1ccc(O)cc1)NC(=O)[C@H](CC(=O)O)NC(=O)[C@H](CO)NC(=O)[C@@H](NC(=O)[C@H](Cc1ccccc1)NC(=O)[C@@H](NC(=O)CNC(=O)[C@H](CCC(N)=O)NC(=O)[C@H](CO)NC(=O)[C@@H](N)Cc1c[nH]cn1)[C@@H](C)O)[C@@H](C)O)C(=O)N[C@@H](CC(=O)O)C(=O)N[C@@H](CO)C(=O)N[C@@H](CCCCN)C(=O)N[C@@H](CCCNC(=N)N)C(=O)N[C@@H](C)C(=O)N[C@@H](CCC(N)=O)C(=O)N[C@@H](CCC(=O)O)C(=O)N[C@@H](Cc1ccccc1)C(=O)N[C@H](C(=O)N[C@@H](CCC(N)=O)C(=O)N[C@@H](Cc1c[nH]c2ccccc12)C(=O)N[C@@H](CC(C)C)C(=O)N[C@@H](CC(C)C)C(=O)N[C@@H](CC(N)=O)C(=O)N[C@H](C(=O)N[C@@H](CCCCNC(=O)COCCOCCNC(=O)COCCOCCNC(=O)CC[C@H](NC(=O)CCCCCCCCCCCCCCCCC(=O)O)C(=O)O)C(N)=O)[C@@H](C)O)C(C)C
B2: N^ε24-([2-[2-[2-[[2-[2-[2-[[(4S)-5-hydroxy-4-[(18-hydroxy-18-oxooctadecanoyl)amino]-5-oxopentanoyl]amino]ethoxy]ethoxy]acetyl]amino]ethoxy]ethoxy]acetyl]) … (peptide)
peptide: HSQGTFTSDYSKYLDSKRAQEFVK([AEEA-AEEA-γGlu-C18 diacid])WLLST-NH2
modifications: N-terminus assumed
SMILES: CC(C)C[C@H](NC(=O)[C@H](Cc1ccc(O)cc1)NC(=O)[C@H](CCCCN)NC(=O)[C@H](CO)NC(=O)[C@H](Cc1ccc(O)cc1)NC(=O)[C@H](CC(=O)O)NC(=O)[C@H](CO)NC(=O)[C@@H](NC(=O)[C@H](Cc1ccccc1)NC(=O)[C@@H](NC(=O)CNC(=O)[C@H](CCC(N)=O)NC(=O)[C@H](CO)NC(=O)[C@@H](N)Cc1c[nH]cn1)[C@@H](C)O)[C@@H](C)O)C(=O)N[C@@H](CC(=O)O)C(=O)N[C@@H](CO)C(=O)N[C@@H](CCCCN)C(=O)N[C@@H](CCCNC(=N)N)C(=O)N[C@@H](C)C(=O)N[C@@H](CCC(N)=O)C(=O)N[C@@H](CCC(=O)O)C(=O)N[C@@H](Cc1ccccc1)C(=O)N[C@H](C(=O)N[C@@H](CCCCNC(=O)COCCOCCNC(=O)COCCOCCNC(=O)CC[C@H](NC(=O)CCCCCCCCCCCCCCCCC(=O)O)C(=O)O)C(=O)N[C@@H](Cc1c[nH]c2ccccc12)C(=O)N[C@@H](CC(C)C)C(=O)N[C@@H](CC(C)C)C(=O)N[C@@H](CO)C(=O)N[C@H](C(N)=O)[C@@H](C)O)C(C)C
B3: N^ε29 … (peptide)
peptide: HSQGTFTSDYSKYLDSKRAQEFVQWLLNK([AEEA-AEEA-γGlu-C18 diacid])-NH2
modifications: N-terminus assumed
SMILES: CC(C)C[C@H](NC(=O)[C@H](CC(C)C)NC(=O)[C@H](Cc1c[nH]c2ccccc12)NC(=O)[C@H](CCC(N)=O)NC(=O)[C@@H](NC(=O)[C@H](Cc1ccccc1)NC(=O)[C@H](CCC(=O)O)NC(=O)[C@H](CCC(N)=O)NC(=O)[C@H](C)NC(=O)[C@H](CCCNC(=N)N)NC(=O)[C@H](CCCCN)NC(=O)[C@H](CO)NC(=O)[C@H](CC(=O)O)NC(=O)[C@H](CC(C)C)NC(=O)[C@H](Cc1ccc(O)cc1)NC(=O)[C@H](CCCCN)NC(=O)[C@H](CO)NC(=O)[C@H](Cc1ccc(O)cc1)NC(=O)[C@H](CC(=O)O)NC(=O)[C@H](CO)NC(=O)[C@@H](NC(=O)[C@H](Cc1ccccc1)NC(=O)[C@@H](NC(=O)CNC(=O)[C@H](CCC(N)=O)NC(=O)[C@H](CO)NC(=O)[C@@H](N)Cc1c[nH]cn1)[C@@H](C)O)[C@@H](C)O)C(C)C)C(=O)N[C@@H](CC(N)=O)C(=O)N[C@@H](CCCCNC(=O)COCCOCCNC(=O)COCCOCCNC(=O)CC[C@H](NC(=O)CCCCCCCCCCCCCCCCC(=O)O)C(=O)O)C(N)=O
B4: N^ε16-([2-[2-[2-[[2-[2-[2-[[(4S)-5-hydroxy-4-[(18-hydroxy-18-oxooctadecanoyl)amino]-5-oxopentanoyl]amino]ethoxy]ethoxy]acetyl]amino]ethoxy]ethoxy]acetyl])[Aib^2 … (peptide)
peptide: H[Aib]QGTFTSDYSKYLDK([AEEA-AEEA-γGlu-C18 diacid])KRAQEFVQWLLNT-NH2
modifications: N-terminus assumed
SMILES: CC(C)C[C@H](NC(=O)[C@H](Cc1ccc(O)cc1)NC(=O)[C@H](CCCCN)NC(=O)[C@H](CO)NC(=O)[C@H](Cc1ccc(O)cc1)NC(=O)[C@H](CC(=O)O)NC(=O)[C@H](CO)NC(=O)[C@@H](NC(=O)[C@H](Cc1ccccc1)NC(=O)[C@@H](NC(=O)CNC(=O)[C@H](CCC(N)=O)NC(=O)C(C)(C)NC(=O)[C@@H](N)Cc1c[nH]cn1)[C@@H](C)O)[C@@H](C)O)C(=O)N[C@@H](CC(=O)O)C(=O)N[C@@H](CCCCNC(=O)COCCOCCNC(=O)COCCOCCNC(=O)CC[C@H](NC(=O)CCCCCCCCCCCCCCCCC(=O)O)C(=O)O)C(=O)N[C@@H](CCCCN)C(=O)N[C@@H](CCCNC(=N)N)C(=O)N[C@@H](C)C(=O)N[C@@H](CCC(N)=O)C(=O)N[C@@H](CCC(=O)O)C(=O)N[C@@H](Cc1ccccc1)C(=O)N[C@H](C(=O)N[C@@H](CCC(N)=O)C(=O)N[C@@H](Cc1c[nH]c2ccccc12)C(=O)N[C@@H](CC(C)C)C(=O)N[C@@H](CC(C)C)C(=O)N[C@@H](CC(N)=O)C(=O)N[C@H](C(N)=O)[C@@H](C)O)C(C)C
B5: N^ε28 ([2-[2-[2-[[2-[2-[2-[[(4S)-5-hydroxy-4-[(18-hydroxy-18-oxooctadecanoyl)amino]-5-oxopentanoyl]amino]ethoxy]ethoxy]acetyl]amino]ethoxy]ethoxy]acetyl]) … (peptide)
peptide: HSQGTFTSDYSKYLDSKRAQEFVQWLLK([AEEA-AEEA-γGlu-C18 diacid])T-NH2
modifications: N-terminus assumed
SMILES: CC(C)C[C@H](NC(=O)[C@H](Cc1ccc(O)cc1)NC(=O)[C@H](CCCCN)NC(=O)[C@H](CO)NC(=O)[C@H](Cc1ccc(O)cc1)NC(=O)[C@H](CC(=O)O)NC(=O)[C@H](CO)NC(=O)[C@@H](NC(=O)[C@H](Cc1ccccc1)NC(=O)[C@@H](NC(=O)CNC(=O)[C@H](CCC(N)=O)NC(=O)[C@H](CO)NC(=O)[C@@H](N)Cc1c[nH]cn1)[C@@H](C)O)[C@@H](C)O)C(=O)N[C@@H](CC(=O)O)C(=O)N[C@@H](CO)C(=O)N[C@@H](CCCCN)C(=O)N[C@@H](CCCNC(=N)N)C(=O)N[C@@H](C)C(=O)N[C@@H](CCC(N)=O)C(=O)N[C@@H](CCC(=O)O)C(=O)N[C@@H](Cc1ccccc1)C(=O)N[C@H](C(=O)N[C@@H](CCC(N)=O)C(=O)N[C@@H](Cc1c[nH]c2ccccc12)C(=O)N[C@@H](CC(C)C)C(=O)N[C@@H](CC(C)C)C(=O)N[C@@H](CCCCNC(=O)COCCOCCNC(=O)COCCOCCNC(=O)CC[C@H](NC(=O)CCCCCCCCCCCCCCCCC(=O)O)C(=O)O)C(=O)N[C@H](C(N)=O)[C@@H](C)O)C(C)C
B6: N^ε24-([2-[2-[2-[[2-[2-[2-[[(4S)-5-hydroxy-4-[(18-hydroxy-18-oxooctadecanoyl)amino]-5-oxopentanoyl]amino]ethoxy]ethoxy]acetyl]amino]ethoxy]ethoxy]acetyl])[Lys^1 … (peptide)
peptide: HSQGTFTSDYSKYLDSKRAQEFVK([AEEA-AEEA-γGlu-C18 diacid])WLLET-NH2
modifications: N-terminus assumed
SMILES: CC(C)C[C@H](NC(=O)[C@H](Cc1ccc(O)cc1)NC(=O)[C@H](CCCCN)NC(=O)[C@H](CO)NC(=O)[C@H](Cc1ccc(O)cc1)NC(=O)[C@H](CC(=O)O)NC(=O)[C@H](CO)NC(=O)[C@@H](NC(=O)[C@H](Cc1ccccc1)NC(=O)[C@@H](NC(=O)CNC(=O)[C@H](CCC(N)=O)NC(=O)[C@H](CO)NC(=O)[C@@H](N)Cc1c[nH]cn1)[C@@H](C)O)[C@@H](C)O)C(=O)N[C@@H](CC(=O)O)C(=O)N[C@@H](CO)C(=O)N[C@@H](CCCCN)C(=O)N[C@@H](CCCNC(=N)N)C(=O)N[C@@H](C)C(=O)N[C@@H](CCC(N)=O)C(=O)N[C@@H](CCC(=O)O)C(=O)N[C@@H](Cc1ccccc1)C(=O)N[C@H](C(=O)N[C@@H](CCCCNC(=O)COCCOCCNC(=O)COCCOCCNC(=O)CC[C@H](NC(=O)CCCCCCCCCCCCCCCCC(=O)O)C(=O)O)C(=O)N[C@@H](Cc1c[nH]c2ccccc12)C(=O)N[C@@H](CC(C)C)C(=O)N[C@@H](CC(C)C)C(=O)N[C@@H](CCC(=O)O)C(=O)N[C@H](C(N)=O)[C@@H](C)O)C(C)C
B7: N^ε25 … (peptide)
peptide: HSQGTFTSDYSKYLDSKRAQEFVQK([AEEA-AEEA-γGlu-C18 diacid])LLNT-NH2
modifications: N-terminus assumed
SMILES: CC(C)C[C@H](NC(=O)[C@H](Cc1ccc(O)cc1)NC(=O)[C@H](CCCCN)NC(=O)[C@H](CO)NC(=O)[C@H](Cc1ccc(O)cc1)NC(=O)[C@H](CC(=O)O)NC(=O)[C@H](CO)NC(=O)[C@@H](NC(=O)[C@H](Cc1ccccc1)NC(=O)[C@@H](NC(=O)CNC(=O)[C@H](CCC(N)=O)NC(=O)[C@H](CO)NC(=O)[C@@H](N)Cc1c[nH]cn1)[C@@H](C)O)[C@@H](C)O)C(=O)N[C@@H](CC(=O)O)C(=O)N[C@@H](CO)C(=O)N[C@@H](CCCCN)C(=O)N[C@@H](CCCNC(=N)N)C(=O)N[C@@H](C)C(=O)N[C@@H](CCC(N)=O)C(=O)N[C@@H](CCC(=O)O)C(=O)N[C@@H](Cc1ccccc1)C(=O)N[C@H](C(=O)N[C@@H](CCC(N)=O)C(=O)N[C@@H](CCCCNC(=O)COCCOCCNC(=O)COCCOCCNC(=O)CC[C@H](NC(=O)CCCCCCCCCCCCCCCCC(=O)O)C(=O)O)C(=O)N[C@@H](CC(C)C)C(=O)N[C@@H](CC(C)C)C(=O)N[C@@H](CC(N)=O)C(=O)N[C@H](C(N)=O)[C@@H](C)O)C(C)C
B8: N^ε27 ([2-[2-[2-[[2-[2-[2-[[(4S)-5-hydroxy-4-[(18-hydroxy-18-oxooctadecanoyl)amino]-5-oxopentanoyl]amino]ethoxy]ethoxy]acetyl]amino]ethoxy]ethoxy]acetyl]) … (peptide)
peptide: HSQGTFTSDYSKYLDSKRAQEFVQWLK([AEEA-AEEA-γGlu-C18 diacid])NT-NH2
modifications: N-terminus assumed
SMILES: CC(C)C[C@H](NC(=O)[C@H](Cc1ccc(O)cc1)NC(=O)[C@H](CCCCN)NC(=O)[C@H](CO)NC(=O)[C@H](Cc1ccc(O)cc1)NC(=O)[C@H](CC(=O)O)NC(=O)[C@H](CO)NC(=O)[C@@H](NC(=O)[C@H](Cc1ccccc1)NC(=O)[C@@H](NC(=O)CNC(=O)[C@H](CCC(N)=O)NC(=O)[C@H](CO)NC(=O)[C@@H](N)Cc1c[nH]cn1)[C@@H](C)O)[C@@H](C)O)C(=O)N[C@@H](CC(=O)O)C(=O)N[C@@H](CO)C(=O)N[C@@H](CCCCN)C(=O)N[C@@H](CCCNC(=N)N)C(=O)N[C@@H](C)C(=O)N[C@@H](CCC(N)=O)C(=O)N[C@@H](CCC(=O)O)C(=O)N[C@@H](Cc1ccccc1)C(=O)N[C@H](C(=O)N[C@@H](CCC(N)=O)C(=O)N[C@@H](Cc1c[nH]c2ccccc12)C(=O)N[C@@H](CC(C)C)C(=O)N[C@@H](CCCCNC(=O)COCCOCCNC(=O)COCCOCCNC(=O)CC[C@H](NC(=O)CCCCCCCCCCCCCCCCC(=O)O)C(=O)O)C(=O)N[C@@H](CC(N)=O)C(=O)N[C@H](C(N)=O)[C@@H](C)O)C(C)C

Numbered stars: 1 amine (or outer) side, 2 acyl side, 3 side chain; on linkers, the order of the positions; unused ones are H or OH. Square brackets hold non-standard residues; d marks the D form. Side chains are listed from the residue outwards. Ends that are not written are not given here. * marks the point of attachment. C18 diacid = O=C(O)CCCCCCCCCCCCCCCCC(=O)*; γGlu = O=C(O)[C@H](CCC(=O)[*:2])N[*:1]; AEEA = NCCOCCOCC(=O)O; Aib = CC(C)(N)C(=O)O

This experiment deals with glucagon receptor (UniProt P47871 26-477, limits assumed). In words: cell-based or functional assay.
Sequence of glucagon receptor (P47871 26-477 limits assumed): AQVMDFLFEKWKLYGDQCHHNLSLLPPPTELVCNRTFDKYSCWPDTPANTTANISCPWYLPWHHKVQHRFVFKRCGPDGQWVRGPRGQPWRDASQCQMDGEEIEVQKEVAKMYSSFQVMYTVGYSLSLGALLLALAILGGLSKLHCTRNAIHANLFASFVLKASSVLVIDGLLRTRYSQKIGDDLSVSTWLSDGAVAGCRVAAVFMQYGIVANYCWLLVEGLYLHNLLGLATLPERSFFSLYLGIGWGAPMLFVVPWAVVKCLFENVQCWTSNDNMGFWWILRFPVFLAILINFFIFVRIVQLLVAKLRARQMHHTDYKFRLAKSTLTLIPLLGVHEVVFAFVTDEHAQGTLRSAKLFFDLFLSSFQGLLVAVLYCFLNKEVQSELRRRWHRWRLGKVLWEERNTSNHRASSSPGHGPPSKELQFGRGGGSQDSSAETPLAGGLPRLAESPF
Turning to B1, the “Assay (I) Glucagon [EC50]” value is 17 pM.

Regarding B2, the “Assay (I) Glucagon [EC50]” value came out at 7 pM.

Turning to B3, the “Assay (I) Glucagon [EC50]” value came to 3 pM.

With B4, the “Assay (I) Glucagon [EC50]” value turned out to be 7 pM.

For the molecule B5, the “Assay (I) Glucagon [EC50]” value worked out at 3 pM.

On to B6, for which the “Assay (I) Glucagon [EC50]” value was 3 pM.

On to B7, for which the “Assay (I) Glucagon [EC50]” value was 12 pM.

Regarding B8, the “Assay (I) Glucagon [EC50]” value worked out at 7 pM.

Source of the values: patent US20130143798A1 (Novo Nordisk, published 2013).
